Measured values taken from a protein production outcome set (Wang et al. 2014).

Assay: label from the status in PepcDB records

In the case of “MASGLSEIGSTKMFDGYNKRYKHFSETLGCSMTFSIYFPPSASSSHKSPVLYWLSGLTCTDENFIIKSGAQRAASTHGIALVAPDTSPRGLNVEGEADSYDFGVGAGFYLNATQEKWKNWRMYDYVVKELPKLLSENFSQLDTTKASISGHSMGGHGALTIYLRNLDKYKSVSAFAPITNPINCAWGQKAFTNYLGDNKAAWEEYDATCLISKYNNLSATILIDQGENDQFYPDQLLPSKFEEACKKVNAPLLLRLHPGYDHSYYFIATFIEDHISHHAQALEL”, the protein production is reported as “failed”.

With “MNYVKYHLLALLVTLLVAGSFISSEKLSGVVNPFSLTLLRFVIAAFTLLPFVLFKAQYRKGIIRALPRSLIMSVFFSVFFICMFEALKTTTPLNTGTLYTLVPFLTAIFSIFAFKEKITKKRLVVYLIGSAGTSWIIFGGDIEALLAFSLNGGDALFIGGCISMVCYSISMKFLYRGDEIIVIVFCTLFCGALWMLLALLVFNQPLQWHLLKSDLWFHMGYLALFATLASTFIIQKTTVVLGPSKVMAYIYLNPICVAFLMLFIEGKSIPSIVFPGMIISLIATIVLQFQNRNNANK” the protein production was “failed”.

For “SESQSEEIDCNDKDLFKAVDAALKKYNSQNQSNNQFVLYRITEATKTVGSDTFYSFKYEIKEGDCPVQSGKTWQDCEYKDAAKAATGECTATVGKRSSTKFSVATQTCQITPAEGPVVTAQYDCLGCVHPISTQSPDLEPILRHG”, the protein production was “not failed”.

With “MTKRHVSLPADAKDVRRAFVSGVDERLSAAETPDELATAVTGTLADLRGERDAYEAWRDGDDVRPAAAARLATLDPRNASLESEYYAEKDEAAFARSKPLQWLWRQFDTTPLADNVDVALPFRRMLAGHLFAGVGEDVRLFKGITMTYGHNIELGDNAVVHDGVHLDDRGELVVGARASVSNGAHLYTHDHDVVDQTDVTNYRTEIGADARVTQGALVRAGVRVGENALVGSRSVVQGDVPAHHIAVGSPAESVRVKPGWEAVAAPLDAGLEHHHHHH” the protein production was “not failed”.

With “MRNYIQGIDHVQVAAPVGCEEEARAFYGETIGMEEIPKPEELKKRGGCWFKCGNQEIHIGVEQNFNPAKRAHPAFYVLKIDEFKQELIKQGIEVIDDHARPDVIRFYVSDPFGNRIEFMENKN” the protein production was “not failed”.

In the case of “MAFLKVVPLEKALEVVQSFKISPGIEEVPIEKGLGRIAAEDIYSPIDVPPFDRATVDGYAVRAEDTFMASEASPVRLKVIGSVHAGEEPKFKLGKGEAAYISTGAMLPGNADAVIQFEDVERVNGEILIYKPAYPGLGVMKKGIDIEKGRLLVKKGERLGFKQTALLSAVGINKVKVFRKPKVAVISTGNEIVPPGNELKPGQIYDINGRALCDAINELGGEGIFMGVARDDKESLKALIEKAVNVGDVVVISGGASGGTKDLTASVIEELGEVKVHGIAIQPGKPTIIGVIKGKPVFGLPGYPTSCLTNFTLLVVPLLLRALGREGKIGKKVARLKHKVFSVKGRRQFLPVKLEGDLAVPILKGSGAVTSFIDADGFVEIPETVESLDEGEEVEVTLFKGW”, the protein production is reported as “not failed”.

For “MSRSSSPPLAPARRTRGGHACLALAMVLAGSTVPASKLIAAEVAPFTATAIRLGLALPVFLLLMRATGARWPRPGRRDACLLALQAAAGSVGYTALLIAGLRLTSAADAAVVIGTLPAVTALLAMAVLRERPPPRTLAAIALAAAGVLVLVGGRTDDAPGSLAGNLLVLGAVVCEGLFILLSKRLRAPIAPLPLSAALTAIGAVLAGAAALAEAPWHAAFGSPALAVLAYYAWLPTVAGFVLWYAGLARASASEAALFTALAPVAAVLLAALALGETVGPRQAAGIGCVLAAVLALRPGGDKQSQKENIK”, the protein production was “failed”.

In the case of “MAHHHHHHMAITLPKLKYALNALSPHISEETLSFHYNKHHAGYVNKLNGLIKDTPLANKSLTDILKESTGAIFNNAAQIWNHSFYWDSMGPNCGGEPHGEIKEKIQEDFGSFNNFKDQFSNVLCGHFGSGWGWLALNKNNKLVILQTHDAGNPIKENTGIPILTCDVWEHAYYIDYRNDRLSYVKAWWNLVNWNFANENLKNALNK”, the protein production is reported as “not failed”.

In the case of “MVMEKALTLQQMPDFIVSTIPKGQASYLVFGERSIGKKDVIDIVIKQLEKIGFRTGVEQVPSVGETYKNQTLNSIMDKITGKTEVRDKNTIIKEYDEFTRNNKEKIVIAVYGVEKLSMESKNLFLYMCRISRNRNVTLIGTYNADSTDEYDRFINLIASEDYINIIKIEKPTIEDIAFLVKKMGYKLPDDFVKEIARLTNYNIDSMKYALRYYQDLGVINDRKEINTVSFRYIPVPPTTELYYEKMINSLTDLEKNVAYLMVMLSNDIDVDSAAIILNRKRTEVLNIIRKLEDKGLVKFNGQVVGFYSDKIRRSVEKSMKTSDIAYMTSLIESSQLFMRMPPAQRMHILMKANKLDEIRDIIKEKGQSLVDGYNSVDEVIEDLEQLGNVFSEDSDVKKVLCHAYYLKGRFDKAISCYMDIKPDHDLDSMIDLSSIYSNMGKFEEAEKILEDAKNNFTDDYPQTIISYRIAALYYRMGRYKDTIDMLTPLLGKIDAENMSGVKAGILNILGNIDMTSYRYGDALKKYNEALEINRKLSNYAEISRNLNNIALIDVYTGKYDLAISILKELIETTYSTGDLVSRIYAIYNLSEIYYVIGKQEYAEGYIPLMMRILDVVSEKRVSFHIYRFLTMYYVGLLDFKMAKKYAELAIENAIMEDQKIMAIIFHKIINYVLTGEDPNIDTQEIDSTNFTDDYTSTFLIALAYYYRIIENQEMAKHYVDMAEEAAYKMKIPYVIVNASFHKAVILLSIGDLDGFRRHFERMQKPPTTIQFYDDSFEIFRSIYDGNFDAIKSSKYRIIEEDHVNGTLKGLMPVILNAFALYKFSGIPDDLHHLINVTPEPYSRLLALITNYH”, the protein production is reported as “failed”.

For “MSKLAQIVQKLKKQGIEAAVLSDPVSINYLTGFYSDPHERLMFLFLFADQEPLLFLPELDALRAKSILDISVTGYLDFENPLEKIKTLLPKTNYSKIALEFDNLNVTKFKGLETIFSGQFTNLTPLINRMRLIK”, the protein production was “failed”.

In the case of “MSLSVMFDPQSYPYPSRRNVVYAKNGMVATSQPLAAQAGLDILKAGGNAIDAAIATATALTVLEPTSNGIGSDAFALVWTKGKLHGLNGSGRAPMSLTMEAVKAKGYEQELPPYGVIPVTVPGAPGAWAELAKMYGNLPLAASLAPAIRYAEEGYPVTPTLAKYWKAAYDRFKTEWTDDVYQPWFDTFAPKGRAPRVGEVWRSQGHADTLRSIAESNGESFYRGELADQIHAFFDKHGGYLTKEDLACYRPEWVEPISIDYRGYRVWEIPPNGQGLVALEALNIVKGFEFYHKDTVDTYHKQIEAMKLAFVDGMKYVTEPSDMSVSVEQLLSDEYATERRKEIGEQALTPEPGTPPRGGTVYLATADGDGNMVSFIQSNYMGFGSGVVVPGTGIAMQNRGHNFSLDPNHDNALKPGKRTYHTIIPGFLTKNDQPIGPFGVMGGFMQPQGHMQVMMNTIDFGLNPQAALDAPRWQWTNGKQVQVEPTFPVDIAQALVRRGHKIQVVLDEGAFGRGQIIWRDPTTGVLAGGTEPRTDGQVAAWEGHHHHHH”, the protein production is reported as “not failed”.

In the case of “MARRKRRNFSKQASEILNEYFYSHLSNPYPSEEAKEELARKCGITVAQVSNWFGNKRIRYKKNIGKAQEEANLYAAKKAAGASP”, the protein production is reported as “not failed”.

In the case of “MMTETVRTWRHIPQRYNLTGSKCLQCGNVFFPSRIICPECRRKGKLEELKFSGKGRIHSYSVINTPTDEFKDIAPYVVAIVELEEGARVTSQIVDCDPDSIEIGDEVEMVFRKVREEGEDGVISYGFKFKPKT”, the protein production is reported as “failed”.

For “TPVRIESFDNSNIMGTSPVSAMVVFVNGKPSKKDYRKYKIKTVVGPDDYASMREVIRRRYGRVQREALTPPDLIVIDGGQGQVNIAKQVIQEELGLDIPIAGLQKNDKHQTHELLFGDPLEVVDLSRNSQEFFLLQRIQDEVHRFAITFHRQLRSKNSFSSQLDGIDG”, the protein production was “failed”.

In the case of “MNFGTQIKMIRKENQLTQEQFGNQLNISRQTVSTWENNRYLPDIEMLVEIAKTFNLSLDDLILGNSVVKDKLVNDTKFVKRIRLSILSMIFILIAIVSALLFTSLPSHVSQDGVLQEPWFLVILAFFSLLTGLIIGMVNLVLIFINYYKYARRRK”, the protein production is reported as “failed”.

With “MGSPKVEDTLISDAQIEEAKQDGTTTAVYVIARNSGEFADRLDAEGDYQLWSNEEENLKKVVANFDNVIVVLNVGGIIDTKFFHEIEGLDSLLLMSQAGMRGGDAVVKVLNGEVTPSGKLTDTWAVNYEDYSSSETFGKNDVNTTQEDYTDDIYVGYRYFDTFNVTPAYEFGYGLSYTDFNIDVKDVTVDEENVTVDVKVTNVGKQYSGKEVVEVYFSAPDGALEKPYQELATYGKTDTLAPGESQTLTLSYATTEMSAYSEDLAAYVMEDGDYLVRVGNSSRNTSVEAVINLDSNKVTEQLSNQMVQDEEIDTLSNEGATPYTYEGEAEEIAKAERFELDANAIETVNNASEYDDESVISYVYEGSDYTVVDQEANPRYTKAPSGNNTTPSQLIEPYEETIQYVEKTKENPTLLDVYQGTVTMEELLASLSVEEMSNIVEGLGWGGGSEPIIGAQANSVKGAAGETTSKYYETRAIPNTVLADGPAGIRITQSYEEDGTTYYQYCTAFPIGTLIAQSWDKDVAKQFGEAIGEEMLEMGVTMWLAPGMNIHRNPLCGRNFEYYSEDPLVAGVTAASTTLGVQSHEGIGVTLKHYAANNQEDNRNAVNNTITERALREIYLKGFEIAVKTANPMALMTCYNLNNAMPGADDYDLCTDIPRGEWGFNGLIMTDWGGGQSTPVNSMHAGNDLIMPGGSSKSIAEATGVTLPLGDLQKATRNVLNVIMDSTQFKKIGVENGVEVEIGKFTESAGLGLFLDVTKSEVTSVNKTALQIAVDVASNIADEELENVVPAVANELKAALEEAKAILEDATAEQETVDASFDRLATAIQMLDFIKGDKAALRSFITKVENTVEEEYTPATWTAFAAALGTGNTVLANENAMQEEVDNAYTNLVKAYLNLRLVPNKDKLEDLINQTKALVAANYTADTWKNVSDALVLAENVMSNENATSEEVANAETVLTKAVEGLVVNNTPVTPSTPAVDNTVDSTVKTPVNSGDTTASVKTGDESLTGLFGGITLLSLAGAVLLKRKEN” the protein production was “failed”.

In the case of “MRRFNTSQNKNERNLFNDYIKNEDELYDERDDEGINKEPISLKADVNNNFFPIDQIHSTYFLCNNLNNDNTEKEINEHISFEKIQDHEKEEKKKIFLFNLSDNQKKQIENLKINKIIQNEMYLKKNKILKYIIHIFISDILKEKPNDVYDYASNYFTQPQFKMYILEKLKLRINK”, the protein production is reported as “failed”.

In the case of “MALFIPTRLVSALALVGVSGLMLGCGSSGGGSNGTTASSAKAASSTPVAISSVAASSTAAVAGNIKLNQLGFLPESAKWAVVPAGVAASFTVINATTNAEVFSGNLSVAATWSASEESVKLADFSSVKTPGDYLLRVEGVNDSYPFTIANDVYSALTAASIKAFYFNRNSAELLATHAGMFARPPGHPDTQVLVHVSAASAARPAGTIISSPKGWYDAGDYNKYIVNSGIATYSLLAAYEHFPDIFNGQNLNIPESGDALPDLLNETLWNLEWMLSMQDPNDGGVYHKLTNKNFDGTVMPHQATSERYVVQKTTAAALDFAAVMATASRVVAQYESQLPGMSAKMLAAAESAWNWAVANPAITYKQPDDIKTGEYGDGNLADEFFWAAAELYITSKKDAYYTAMKPTETVATVPSWGDVRSLGWISLAHHRDNLTAVADKQLIANRIDGLAANLQSVWATSAYRVTMQKNDFVWGSNSVALGQAMMLVQGYRLNGKREYLDAAQAMLDYVLGRNATDMSFVTGYGDKSTLHPHHRPSEADGIVEPIPGFIAGGPQPGQQDKSGCSVSYPSNIAAKSYLDNWCSYASNEIAINWNAPLVYVSAAIQALTPK”, the protein production is reported as “failed”.

In the case of “MKTQITTRDLVLEFIHALNTENFPAAKKRLNENFTFNGPMGHREGSERYMNDMEKMKFKYVVHKMFEEGNDVCLIYDINMNGKTIAASGLYHLEKGEITSLHVYFDPRPLFEE”, the protein production is reported as “not failed”.

In the case of “MALMTMVQALNRALDEEMAKDPRVVVLGEDVGKRGGVFLVTEGLLQKYGPDRVMDTPLSEAAIVGAALGMAAHGLRPVAEIQFADYIFPGFDQLVSQVAKLRYRSGGQFTAPLVVRMPSGGGVRGGHHHSQSPEAHFVHTAGLKVVAVSTPYDAKGLLKAAIRDEDPVVFLEPKRLYRSVKEEVPEEDYTLPIGKAALRREGKDLTLIGYGTVMPEVLQAAAELAKAGVSAEVLDLRTLMPWDYEAVMNSVAKTGRVVLVSDAPRHASFVSEVAATIAEDLLDMLLAPPIRVTGFDTPYPYAQDKLYLPTVTRILNAAKRALDY”, the protein production is reported as “not failed”.
